Assay results taken from paper PMC4528935, “Structures of Pseudomonas aeruginosa β-ketoacyl-(acyl-carrier-protein) synthase II (FabF) and a C164Q mutant provide templates for antibacterial drug discovery and identify a buried potassium ion and a ligand-binding site that is an artefact of the crystal form” (Acta Crystallographica. Section F, Structural Biology …, 2015).

B1: Pseudomonas aeruginosa β-ketoacyl-(acyl-carrier-protein) synthase II (FabF) (enzyme)
chain: MSRRRVVITGMGMLSPLGLDVPSSWEGILAGRSGIAPIEHMDLSAYSTRFGGSVKGFNVEEYLSAKEARKLDLFIQYGLAASFQAVRDSGLEVTDANRERIGVSMGSGIGGLTNIENNCRSLFEQGPRRISPFFVPGSIINMVSGFLSIHLGLQGPNYALTTACTTGTHSIGMAARNIAYGEADVMVAGGSEMAACGLGLGGFGAARALSTRNDEPTRASRPWDRDRDGFVLSDGSGALVLEELEHARARGARIYAELVGFGMSGDAFHMTAPPEDGAGAARCMKNALRDAGLDPRQVDYINAHGTSTPAGDIAEIAAVKSVFGEHAHALSMSSTKSMTGHLLGAAGAVEAIFSVLALRDQVAPPTINLDNPDEGCDLDLVAHEAKPRKIDVALSNSFGFGGTNGTLVFRRFAD
notes: β-ketoacyl-(acyl-carrier-protein) synthase II (FabF) of Pseudomonas aeruginosa, UniProt G3XDA2; the gene was cloned into pNIC28-Bsa4; theoretical mass of a monomer 43 kDa; The models hold 822 residues for two chains (4b7v) and 408 for one chain (4jpf); also called PaFabF; apo PaFabF; source: E. coli BL21(DE3)pLysS, purified (Ni2+ HisTrap, TEV cleavage, second HisTrap, Superdex 200 SEC); not …
B2: PaFabF C164Q mutant (enzyme)
chain: MSRRRVVITGMGMLSPLGLDVPSSWEGILAGRSGIAPIEHMDLSAYSTRFGGSVKGFNVEEYLSAKEARKLDLFIQYGLAASFQAVRDSGLEVTDANRERIGVSMGSGIGGLTNIENNCRSLFEQGPRRISPFFVPGSIINMVSGFLSIHLGLQGPNYALTTAQTTGTHSIGMAARNIAYGEADVMVAGGSEMAACGLGLGGFGAARALSTRNDEPTRASRPWDRDRDGFVLSDGSGALVLEELEHARARGARIYAELVGFGMSGDAFHMTAPPEDGAGAARCMKNALRDAGLDPRQVDYINAHGTSTPAGDIAEIAAVKSVFGEHAHALSMSSTKSMTGHLLGAAGAVEAIFSVLALRDQVAPPTINLDNPDEGCDLDLVAHEAKPRKIDVALSNSFGFGGTNGTLVFRRFAD
notes: β-ketoacyl-(acyl-carrier-protein) synthase II (FabF) of Pseudomonas aeruginosa, UniProt G3XDA2, with Cys164 changed to Gln; same construct in pNIC28-Bsa4 as the wild type; The model holds 824 residues for two chains (4jb6); source: E. coli BL21(DE3)pLysS, purified as the wild type but in phosphate buffer; not shown: His6, N-terminal, cleaved

Experiments:
[1] = biological target: the molecule itself; assay: crystal structure; apo PaFabF, space group P2_(1), two molecules in the asymmetric unit; 0.2 M MgCl2, 0.1 M Tris-HCl pH 7.0, 10% PEG 8000, 293 K
[2] = biological target: the molecule itself; assay: crystal structure; PaFabF-C164Q, space group C222_(1), a dimer in the asymmetric unit; 0.2 M NH4HCO2, 25% PEG 3350, 293 K

Row | Protein | binding result [1] | binding result [2]
1 | B1 | binds | –
2 | B2 | – | binds
